The text below walks through data of publication PMC5694551, “Kir2.1-Nav1.5 Channel Complexes Are Differently Regulated than Kir2.1 and Nav1.5 Channels Alone” (Frontiers in Physiology, 2017).

This assay deals with T1, Nav1.5 channels of rat ventricular myocytes (rat (endogenous in ventricular myocytes), UniProt P15389 1-2019).
T1 construct: Nav1.5 sodium channel alpha subunit, endogenous at the membrane of Sprague-Dawley rat ventricular myocytes; source: endogenous, isolated rat ventricular myocytes (fixed, non-permeabilized)
T1 sequence (P15389 whole entry): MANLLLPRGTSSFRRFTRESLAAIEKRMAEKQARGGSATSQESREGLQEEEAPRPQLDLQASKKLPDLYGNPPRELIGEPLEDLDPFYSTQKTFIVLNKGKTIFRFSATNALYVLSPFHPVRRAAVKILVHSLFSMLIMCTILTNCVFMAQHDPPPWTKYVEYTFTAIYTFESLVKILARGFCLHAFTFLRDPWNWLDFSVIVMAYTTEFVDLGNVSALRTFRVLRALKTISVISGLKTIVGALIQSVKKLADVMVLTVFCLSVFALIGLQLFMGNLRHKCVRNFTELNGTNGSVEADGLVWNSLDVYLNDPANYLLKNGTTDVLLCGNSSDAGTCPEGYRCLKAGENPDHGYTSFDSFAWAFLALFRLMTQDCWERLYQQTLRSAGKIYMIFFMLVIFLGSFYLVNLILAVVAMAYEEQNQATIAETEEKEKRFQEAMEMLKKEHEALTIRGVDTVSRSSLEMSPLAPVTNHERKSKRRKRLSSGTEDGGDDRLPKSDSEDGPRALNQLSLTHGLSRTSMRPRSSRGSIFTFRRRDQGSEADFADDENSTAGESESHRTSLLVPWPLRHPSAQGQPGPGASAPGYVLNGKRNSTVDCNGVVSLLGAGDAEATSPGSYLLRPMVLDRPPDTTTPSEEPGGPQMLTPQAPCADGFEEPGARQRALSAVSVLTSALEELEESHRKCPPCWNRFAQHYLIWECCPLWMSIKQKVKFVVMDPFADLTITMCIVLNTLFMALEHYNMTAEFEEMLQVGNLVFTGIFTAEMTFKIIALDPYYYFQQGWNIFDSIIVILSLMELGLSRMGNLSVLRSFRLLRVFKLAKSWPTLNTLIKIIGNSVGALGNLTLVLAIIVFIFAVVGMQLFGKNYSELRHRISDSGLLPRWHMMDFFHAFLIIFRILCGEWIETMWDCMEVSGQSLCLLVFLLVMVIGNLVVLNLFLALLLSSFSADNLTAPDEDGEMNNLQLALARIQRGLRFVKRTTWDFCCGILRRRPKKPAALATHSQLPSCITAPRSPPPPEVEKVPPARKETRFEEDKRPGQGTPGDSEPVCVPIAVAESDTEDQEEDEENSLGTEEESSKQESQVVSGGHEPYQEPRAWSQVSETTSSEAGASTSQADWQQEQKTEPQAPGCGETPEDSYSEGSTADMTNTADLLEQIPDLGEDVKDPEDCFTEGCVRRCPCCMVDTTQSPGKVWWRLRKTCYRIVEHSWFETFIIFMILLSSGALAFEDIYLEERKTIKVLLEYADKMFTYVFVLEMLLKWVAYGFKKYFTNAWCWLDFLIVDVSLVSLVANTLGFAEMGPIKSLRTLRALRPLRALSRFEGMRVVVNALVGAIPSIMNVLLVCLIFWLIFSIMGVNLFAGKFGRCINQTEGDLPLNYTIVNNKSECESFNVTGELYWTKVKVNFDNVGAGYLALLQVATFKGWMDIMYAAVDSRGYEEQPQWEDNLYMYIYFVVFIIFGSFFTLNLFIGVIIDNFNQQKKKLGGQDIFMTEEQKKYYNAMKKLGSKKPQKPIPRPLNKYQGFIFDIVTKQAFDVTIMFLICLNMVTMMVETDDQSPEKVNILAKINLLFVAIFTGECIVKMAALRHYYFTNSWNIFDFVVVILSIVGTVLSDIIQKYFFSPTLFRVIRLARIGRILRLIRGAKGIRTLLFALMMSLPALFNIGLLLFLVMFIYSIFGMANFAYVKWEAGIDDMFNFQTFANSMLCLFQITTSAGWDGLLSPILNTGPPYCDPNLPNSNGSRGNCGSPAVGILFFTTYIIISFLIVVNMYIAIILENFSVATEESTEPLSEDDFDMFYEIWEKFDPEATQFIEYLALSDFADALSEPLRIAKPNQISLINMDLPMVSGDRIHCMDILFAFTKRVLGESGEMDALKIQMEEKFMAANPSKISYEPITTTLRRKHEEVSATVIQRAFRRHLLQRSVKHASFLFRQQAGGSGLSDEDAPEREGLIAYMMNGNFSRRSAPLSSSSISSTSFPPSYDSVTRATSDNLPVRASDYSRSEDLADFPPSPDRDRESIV
As to the kind of experiment: proximity ligation; Duolink PLA in fixed, non-permeabilized rat ventricular myocytes; primary antibodies against extracellular domains of Nav1.5 and Kir2.1; buffers without detergents; confocal microscopy; negative control without primary antibodies. Particulars: partners not purified.

B1: Kir2.1 channels of rat ventricular myocytes (natural protein, rat (endogenous in ventricular myocytes), UniProt Q64273 1-427, looked up)
chain: MGSVRTNRYSIVSSEEDGMKLATMAVANGFGNGKSKVHTRQQCRSRFVKKDGHCNVQFINVGEKGQRYLADIFTTCVDIRWRWMLVIFCLAFVLSWLFFGCVFWLIALLHGDLDASKESKACVSEVNSFTAAFLFSIETQTTIGYGFRCVTDECPIAVFMVVFQSIVGCIIDAFIIGAVMAKMAKPKKRNETLVFSHNAVIAMRDGKLCLMWRVGNLRKSHLVEAHVRAQLLKSRITSEGEYIPLDQIDINVGFDSGIDRIFLVSPITIVHEIDEDSPLYDLSKQDIDNADFEIVVILEGMVEATAMTTQCRSSYLANEILWGHRYEPVLFEEKHCYKVDYSRFHKTYEVPNTPLCSARDLAEKKYILSNANSFCYENEVALTSKEEEDSENGVPESTSTDSPPGIDLHNQASVPLEPRPLRRESEI
notes: Kir2.1 inward rectifier K+ channel, endogenous at the membrane of Sprague-Dawley rat ventricular myocytes; source: endogenous, isolated rat ventricular myocytes (fixed, non-permeabilized)
As to B1, the “fold increase of the PLA fluorescence signal over the negative control (no primary antibodies)” value was about 6.5 fold.
